Data from patent US11674967B2, “Method of identifying potential inhibitors of APO TNFα trimers” (UCB BIOPHARMA SRL, priority 2015, dated 2023).

B1: CA185_01979: conformation-selective antibody, light chain SEQ ID NO: 26, heavy chain SEQ ID NO: 27 (antibody)
heavy: EVHLVESGPGLVKPSQSLSLTCSVTGYSITNSYWDWIRKFPGNKMEWMGYINYSGSTGYNPSLKSRISISRDTSNNQFFLQLNSITTEDTATYYCARGTYGYNAYHFDYWGRGVMVTVSSAKTTPPSVYPLAPGSAAQTNSMVTLGCLVKGYFPEPVTVTWNSGSLSSGVHTFPAVLQSDLYTLSSSVTVPSSTWPSETVTCNVAHPASSTKVDKKIVPRDCGCKPCICTVPEVSSVFIFPPKPKDVLTITLTPKVTCVVVDISKDDPEVQFSWFVDDVEVHTAQTQPREEQFNSTFRSVSELPIMHQDWLNGKEFKCRVNSAAFPAPIEKTISKTKGRPKAPQVYTIPPPKEQMAKDKVSLTCMITDFFPEDITVEWQWNGQPAENYKNTQPIMDTDGSYFVYSKLNVQKSNWEAGNTFTCSVLHEGLHNHHTEKSLSHSPGK
light: DIQMTQSPASLSASLEEIVTITCQASQDIGNWLSWYQQKPGKSPHLLIYGTTSLADGVPSRFSGSRSGTQYSLKISGLQVADIGIYVCLQAYSTPFTFGSGTKLEIKRTDAAPTVSIFPPSSEQLTSGGASVVCFLNNFYPKDINVKWKIDGSERQNGVLNSWTDQDSKDSTYSMSSTLTLTKDEYERHNSYTCEATHKTSTSPIVKSFNRNEC
modifications: 1979 HC mIgG1 full; 1979 LC Kappa full

Tests used:
TNFα [1] = molecular target: T1, TNFα (Homo sapiens, UniProt P01375); experiment: SPR on Biacore 4000 against immobilised soluble TNFα; type: binding; settings: up to 100 μM
Method: In another experiment, BIO8898 was tested against the immobilised soluble form of CD40L and the soluble form of TNFα by SPR on a Biacore 4000 machine.

Mouse TNFα = molecular target: T2, Mouse TNFα (Mus musculus, UniProt P06804); experiment: BIAcore antibody binding with mouse TNFα +/- compound
T2 construct: made in house
T2 sequence (P06804 80-235 limits assumed): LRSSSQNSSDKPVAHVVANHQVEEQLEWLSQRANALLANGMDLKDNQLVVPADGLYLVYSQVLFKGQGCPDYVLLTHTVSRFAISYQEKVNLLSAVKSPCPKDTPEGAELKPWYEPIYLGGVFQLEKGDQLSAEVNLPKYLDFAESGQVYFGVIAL
Method: (§1) Surface plasmon resonance was performed at 25° C. using a BIAcore T200 (GE Healthcare). Anti-Mouse Fc (Jackson 115-006-071) was immobilised on a […] Sensor Chip (GE Healthcare) via amine coupling chemistry to a capture level of 6000 response units. HBS-EP buffer (10 mM HEPES pH 7.4, 0.15 M NaCl, 3 mM EDTA, 0.05% (v/v) surfactant P20—GE Healthcare)+1% DMSO was used as the running buffer.
(§2) The surface was regenerated at a flow-rate of 10 μl/min by a 60 s injection of 40 mM HCl×2 and a 30 s 5 mM NaOH. Double referenced background subtracted binding curves were analysed using the T200 Evaluation software (version 1.0) following standard procedures. Kinetic parameters were determined from the fitting algorithm.

[2] = molecular target: human TNFα complexed with compound (15) (Homo sapiens, UniProt P01375); experiment: Size exclusion chromatography of Fab with human TNFα complexed with compound (15); type: binding; settings: mouse Fab fragments
TNFα [3] = molecular target: T1, TNFα; experiment: BIAcore antibody binding with human TNFα +/- compound; design: made in house
Method: as §1, §2

T1 sequence (P01375 77-233 limits assumed): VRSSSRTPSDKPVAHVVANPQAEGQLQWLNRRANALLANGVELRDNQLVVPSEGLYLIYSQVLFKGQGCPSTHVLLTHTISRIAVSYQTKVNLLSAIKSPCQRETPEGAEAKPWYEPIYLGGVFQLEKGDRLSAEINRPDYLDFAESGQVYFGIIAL
Chain of human TNFα complexed with compound (15) (P01375 77-233 limits assumed, one chain of several): as the sequence (P01375 77-233 limits assumed) above

Row | Molecule | binding to TNFα (TNFα [1]) | Kd (Mouse TNFα; Mouse TNFα + compound (15)) | ka (Mouse TNFα; Mouse TNFα + compound (15)) | kd (Mouse TNFα; Mouse TNFα + compound (15)) | ka (Mouse TNFα; Mouse TNFα + compound (39)) | kd (Mouse TNFα; Mouse TNFα + compound (39)) | Kd (Mouse TNFα; Mouse TNFα apo) | ka (Mouse TNFα; Mouse TNFα apo) | kd (Mouse TNFα; Mouse TNFα apo) | stoichiometry of Fab binding to trimer-compound complex [2] | ka (TNFα [3]; Human TNFα + compound (15)) | kd (TNFα [3]; Human TNFα + compound (15)) | ka (TNFα [3]; Human TNFα + compound (39)) | kd (TNFα [3]; Human TNFα + compound (39)) | ka (TNFα [3]; Human TNFα apo) | kd (TNFα [3]; Human TNFα apo)
1 | O=C(NCc1cccc(-c2ccccc2)c1)c1cc(-c2cc(C(=O)NC(C(=O)O)C3CCCCC3)nc(C(=O)N3CCCC3CN3CCCC3)c2)cc(C(=O)N2CCCC2CN2CCCC2)n1 (stereo not shown) [BIO8898] | no binding was detected | – | – | – | – | – | – | – | – | – | – | – | – | – | – | –
2 | B1 | – | 0.38 nM | 160000 M⁻¹ s⁻¹ | 6.3e-05 s⁻¹ | 190000 M⁻¹ s⁻¹ | 3.5e-05 s⁻¹ | 27 nM | 72000 M⁻¹ s⁻¹ | 0.002 s⁻¹ | 1 Fab:1 TNFα trimer | 470000 M⁻¹ s⁻¹ | 1.6e-05 s⁻¹ | 570000 M⁻¹ s⁻¹ | 3.3e-05 s⁻¹ | 110000 M⁻¹ s⁻¹ | 0.00071 s⁻¹
